Results taken from publication PMC2888680.

Columns and labels:
[1] = anti-NEU1 immunoblot, transduced NEU1-deficient fibroblasts; conditions: glycan lost; control: wild-type mNEU1
[2] = limited in vitro trypsin proteolysis of purified protein; conditions: glycan lost; control: wild-type mNEU1
[3] = 4-MU-NANA activity, neu1-/- fibroblasts, endogenous PPCA only; conditions: glycan lost; control: wild-type mNEU1
[4] = 4-MU-NANA activity, Phoenix-A lysates, PPCA coexpressed; conditions: glycan lost; control: wild-type mNEU1
[5] = anti-NEU1 immunoblot, Phoenix-A lysates; conditions: glycan lost; control: wild-type mNEU1
[6] = 4-MU-NANA activity, neu1-/- fibroblasts, PPCA cotransduced; conditions: glycan lost; control: wild-type mNEU1 coexpressed with PPCA

Row | Substance | expression_or_secretion [1] | stability_or_folding [2] | enzymatic_activity, percent_of_wt [3] | enzymatic_activity, percent_of_wt [4] | expression_or_secretion [5] | enzymatic_activity [6]
1 | murine NEU1 (mNEU1): N346D (mut3) | decreases | no change | decreases | decreases | no change | –
2 | murine NEU1 (mNEU1): N180D (mut1) | – | decreases | – | – | decreases | –
3 | murine NEU1 (mNEU1): N372D (mut4) | no change | no change | no change | no change | no change | no change
4 | murine NEU1 (mNEU1): N337D (mut2) | decreases | no change | – | decreases | no change | no change
